Measured values from article PMC7386315.

Columns and labels:
[1] = test system: MoCdc5-DBD (Magnaporthe oryzae P131); assay: BLI
[2] = test system: AtCdc5-DBD (Arabidopsis thaliana); assay: BLI

Substance	Kd [1]	Kd [2]
U6 RNA	1.38 10^-8 M	
MIR167a	5.17 10^-8 M	8.98 10^-8 M
